Reference: PMC6342957, “Structural consequence of the most frequently recurring cancer-associated substitution in DNA polymerase ε”

Biological target: T1, Pol2CORE P301R (DNA polymerase epsilon catalytic core) (Saccharomyces cerevisiae, UniProt P21951 1-1187, P301R)
T1 sequence: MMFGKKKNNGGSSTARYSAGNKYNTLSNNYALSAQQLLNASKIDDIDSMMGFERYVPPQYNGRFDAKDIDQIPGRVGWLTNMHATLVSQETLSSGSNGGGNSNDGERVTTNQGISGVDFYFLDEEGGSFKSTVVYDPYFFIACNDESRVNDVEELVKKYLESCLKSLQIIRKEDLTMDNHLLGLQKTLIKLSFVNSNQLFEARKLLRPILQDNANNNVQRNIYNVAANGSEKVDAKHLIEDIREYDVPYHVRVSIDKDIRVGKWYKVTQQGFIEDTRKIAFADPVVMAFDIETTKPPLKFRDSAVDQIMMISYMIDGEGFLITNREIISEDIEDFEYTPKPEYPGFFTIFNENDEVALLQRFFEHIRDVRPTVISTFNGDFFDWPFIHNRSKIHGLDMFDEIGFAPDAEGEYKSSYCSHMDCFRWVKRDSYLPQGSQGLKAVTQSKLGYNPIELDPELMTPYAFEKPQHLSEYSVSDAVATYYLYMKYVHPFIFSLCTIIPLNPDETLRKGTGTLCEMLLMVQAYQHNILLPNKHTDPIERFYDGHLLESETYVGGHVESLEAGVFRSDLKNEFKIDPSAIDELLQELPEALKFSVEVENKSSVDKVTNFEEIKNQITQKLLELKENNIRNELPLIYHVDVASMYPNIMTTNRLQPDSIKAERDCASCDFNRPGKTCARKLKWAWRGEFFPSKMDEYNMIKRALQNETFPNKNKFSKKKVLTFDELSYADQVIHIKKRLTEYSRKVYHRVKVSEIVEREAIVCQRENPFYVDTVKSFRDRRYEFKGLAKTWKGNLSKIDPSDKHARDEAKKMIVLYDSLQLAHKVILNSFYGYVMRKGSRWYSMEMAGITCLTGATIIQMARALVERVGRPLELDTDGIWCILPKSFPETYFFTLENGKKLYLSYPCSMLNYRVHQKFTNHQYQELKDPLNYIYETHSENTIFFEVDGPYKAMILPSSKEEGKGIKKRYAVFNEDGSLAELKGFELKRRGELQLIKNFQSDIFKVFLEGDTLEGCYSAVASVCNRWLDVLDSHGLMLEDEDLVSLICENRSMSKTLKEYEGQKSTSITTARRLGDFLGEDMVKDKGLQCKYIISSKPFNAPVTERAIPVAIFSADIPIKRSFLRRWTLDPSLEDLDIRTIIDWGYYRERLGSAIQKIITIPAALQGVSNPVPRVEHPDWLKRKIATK
Assay: X-ray crystallography; incoming dNTP; Ca2+ in exonuclease A-site; Crystallization conditions not in the material; protein stored in 25 mM Tris-Ac pH 7.5, 10% glycerol, 800 mM NaAc
Conditions: protein: recombinant; tags: 6xHis removed with PreScission protease; 5' overhang 5 nt on template (recessed primer 3' end)

B1: KP11ddC/KT16 primer-template (dsDNA)
DNA 1: TAACCGCGTTC
DNA 2: CTCTTGAACGCGGTTA
modifications: 3'-terminal dideoxy-C on primer
B1: binds.
